What all share (test): ELISA; biotinylated P21 or P29 (2 ug/ml) on streptavidin-coated plates, PfCSP (2 ug/ml) coated on high-binding plates; 100 ul RATPIg supernatant, 1 h at room temperature; peroxidase goat anti-mouse IgG, OD450
Holding throughout (details): one partner purified
(In general: An ELISA detects its analyte on a solid surface through an enzyme-linked reagent.)

The target of assay [1] is T1, major repeat peptide P29 (NANPNANPNANPNAN) (Plasmodium falciparum, also: biotin, end not given here).
T1 construct: major repeat 15-mer peptide of PfCSP; Biotinylated, held on streptavidin-coated plates in the ELISA; Probably a synthetic peptide (surmise)
T1 chain: NANPNANPNANPNAN

Assay [2] concerns the target T2, Plasmodium falciparum circumsporozoite protein (PfCSP), full-length (Plasmodium falciparum, 3D7 (strain not …, UniProt Q7K740)).
T2 construct: Plasmodium falciparum circumsporozoite protein, called full-length; recombinant 'full-length' PfCSP may lack the signal peptide and the GPI anchor signal (surmise); also called flCSP

Assay [3] addresses T3, junctional peptide P21 (NPDPNANPNVDPNAN) (Plasmodium falciparum, also: biotin, end not given here).
T3 construct: junctional 15-mer peptide of PfCSP; Biotinylated, held on streptavidin-coated plates in the ELISA; Probably a synthetic peptide (surmise); also called peptide 21
T3 chain: NPDPNANPNVDPNAN

Where no end group is shown, it is not given here.

T2 sequence (Q7K740 19-374): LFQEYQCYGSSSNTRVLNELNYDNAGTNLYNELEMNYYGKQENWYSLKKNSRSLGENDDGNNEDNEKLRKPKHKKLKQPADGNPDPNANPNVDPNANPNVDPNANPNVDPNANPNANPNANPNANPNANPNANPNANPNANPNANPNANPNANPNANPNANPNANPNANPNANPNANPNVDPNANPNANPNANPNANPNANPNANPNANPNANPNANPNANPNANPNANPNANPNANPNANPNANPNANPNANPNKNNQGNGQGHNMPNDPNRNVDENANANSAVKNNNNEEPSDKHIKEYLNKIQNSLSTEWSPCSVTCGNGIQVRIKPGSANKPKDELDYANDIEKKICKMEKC

B1: one strong P29-binding antibody of R21-immunized mouse 5116 (antibody, V domains shown)
VH: QVQLQQSGAELARPGASVKLSCKASGYTFTSYAISWVKQRTGQGLEWIGEIYPRSGNIYYNEKFKGKATLTADKSSSTAYMELRSLTSEDSAVYFCARRGDVYFGGYWGQGTTLTVSS
VL: DIVMTQSHKFMSTSVGDRVIITCKASQDVGTAVVWYQQKPGQSPKLLIYWASTRHTGVPDRFTGSGSGTDFTLTISNVQSEDLADYFCQQYNSYPLTFGAGTKLELK
notes: Expressed IgG from a single sorted B cell; source: Expi293, transfected with RATP-Ig cassettes, in culture supernatant
As for B1, the binding result in assay [1] is reported as “binds”.

B2: one strong PfCSP-binding antibody of R21-immunized mouse 5116 (antibody, V domains shown)
VH: QIQLLQSGPELVKPGASVRISCKASGYTLTDHYINWVKQRPGQGLEWIGWIYPGSAEIKFNEKFKGKASLTVDTSSSTAYMQLSSLTSEDSAVYFCARSGYGGLDYWGQGSTLTVSS
VL: DLGMTQSHKFMSTSVGDRVTITCKASQDVGTAVAWYQQKPGQSPKLLIYWASTRHTGVPDRFTGSGSGTDFTLTITNVQSEDLADYFCQQFTIYPWTFGGGTKLEIK
notes: as for B1
Take B2: the binding result in assay [2] is given as “binds”.

B3: P21/P29 double binder of mouse 5147 (PADRE-LuS-3T-immunized mouse) (antibody, V domains shown)
VH: DVQLQESGPGLVKPSQSLSLTCSVTGYSITSGYYWNWIRQFPGNKLEWMGYISYDGSNNYNPSLKNRISITRDTSKNQFFLKLNSVTTEDTATYYCARDDYDGFDYWGQGTTLTVSS
VL: DIQMTQSPSSLSASLGGKVTITCKASQDINKYIAWYQHKPGKGPRLLIHYTSTLQPGIPSRFSGSGSGRDYSFSISNLEPEDIATYYCLQYDNLWTFGGGTKLEIK
notes: as for B1
Regarding B3, the binding result in assay [1] and in assay [3] was “binds” in each case.

Source of the values: publication PMC13324253 (NPJ Vaccines, 2026).
